Measured values from PMC2723105, “DNA binding by Corynebacterium glutamicum TetR-type transcription regulator AmtR”.

Columns and labels:
[1] = biological target: T1, AmtR-MBP wild type (Corynebacterium glutamicum ATCC13032) (UniProt H7C699); experiment: EMSA; conditions: EMSA: DIG gel shift kit (Roche) conditions, 0.04 ng DNA, native 6% PAGE in 0.5x TBE; SPR: HBS-EP running buffer, 25 °C, BIAcoreX, nonspecific 30-mer DNA in the …
T1 sequence: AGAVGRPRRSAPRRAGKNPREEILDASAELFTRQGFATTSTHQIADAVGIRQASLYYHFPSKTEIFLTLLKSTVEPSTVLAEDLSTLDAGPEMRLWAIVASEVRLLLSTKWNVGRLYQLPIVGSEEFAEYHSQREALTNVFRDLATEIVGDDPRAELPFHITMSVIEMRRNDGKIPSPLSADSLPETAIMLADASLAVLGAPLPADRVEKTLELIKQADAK

AmtR-MBP wild type [2] = biological target: T2, AmtR-MBP wild type (Corynebacterium glutamicum ATCC13032, UniProt H7C699 2-222); experiment: EMSA; conditions: EMSA: DIG gel shift kit (Roche) conditions, 0.04 ng DNA, native 6% PAGE in 0.5x TBE; SPR: HBS-EP running buffer, 25 °C, BIAcoreX, nonspecific 30-mer DNA in the …
T2 sequence: T1 sequence

AmtR-MBP wild type [3] = biological target: T2, AmtR-MBP wild type; experiment: SPR; EMSA: DIG gel shift kit (Roche) conditions, 0.04 ng DNA, native 6% PAGE in 0.5x TBE; SPR: HBS-EP running buffer, 25 °C, BIAcoreX, nonspecific 30-mer DNA in the; conditions: protein: recombinant; tags: N-terminal MBP (pMalc2); chain copies: 2; label: 3' biotin on forward strand; blunt

GCCCGTGGTGTGCTCACCAATGATGAAGTCGACGCGCTGACACAGGTGTGGACTTCCGCACTGAGCTTGCAGTCGAAACGTTGGATGGATCACATCCATGATCAAGAAACCACCGCTTGGGAGCTTCCCGCGCTGCAACGTGCCACTTTTGGCGCATCGGCTCGGTTGCTTTCTGAGGTGTTGCGGTCCGTTGAAGCCCGTGAAATCGATACCATAATAGGAACTCTG (double strand) [amtR upstream DNA, additional spacing nucleotide]
binding [1]: binds

GCTGGGCTAGAAACCCGATAAGCGAGAACCACCTGTCGGATGTTGTCTGGCAGGTGGTTTTCTTTTGCCTGGGTACCACCAAAAAGCAGCTGTGATGCACTTAACAATTCATTAAATTACCTGTTAAACTATAGAAAATATCCAAAACCCTCCAAAACCTATTCTATAGATCTATTGAAATTAGTTTCTGTAGGTCTATAGTTAGAGCTGGTTCAAGGGGTGTCAATCCCAAAAGGCACTCCTTGAACTCATGAAAAAGCTTGACAAAACTTCAACGTCAAAGGAGGTCATCCACGC (double strand) [amtB promoter PCR fragment]
Kd [1]: 2400 nM

amtB promoter PCR fragment
Kd (AmtR-MBP wild type [2]): 2400 nM

B1: amtBp SPR 30-mer (dsDNA)
DNA 1: TAAATTACCTGTTAAACTATAGAAAATATC
DNA 2: GATATTTTCTATAGTTTAACAGGTAATTTA
binding result (AmtR-MBP wild type [3]): binds
